PMC4180279

Legend:
[1] = target: GST-P/Q, residues 1898-2035 of the rat P/Q channel α1 subunit (Cav2.1) C-terminal tail (rat); assay: pull-down; 5 μM GST fusion protein immobilised on glutathione-agarose; 5 μM GST-free NCS-1 or CaM added; 150 mM KCl, 20 mM HEPES pH 7.4, 10% glycerol, 5 mM NTA, 5 mM EGTA, 1 mM DTT, 0.1% NP-40, with 1 μM free Ca2+; 1 h, 4 °C; Western blot, densitometry normalised to NCS-1 on GST-PQ with Ca2+ = 100%
[2] = target: Cav2.1 P/Q-type calcium channel IQ domain (Homo sapiens) (UniProt O00555); assay: ITC; details: cited from earlier work
Sequence of Cav2.1 P/Q-type calcium channel IQ domain (Homo sapiens) (O00555 1963-1983): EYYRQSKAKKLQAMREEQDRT

Sequence of Neuronal calcium sensor-1 (NCS-1), GST-free recombinant protein from the GST-NCS-1 plasmid (P62166 whole entry): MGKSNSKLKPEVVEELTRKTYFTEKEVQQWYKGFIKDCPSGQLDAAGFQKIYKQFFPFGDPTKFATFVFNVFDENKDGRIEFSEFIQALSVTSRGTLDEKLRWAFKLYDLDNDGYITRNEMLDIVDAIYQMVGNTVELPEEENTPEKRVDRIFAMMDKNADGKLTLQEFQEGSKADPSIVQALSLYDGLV

average NCS-1 bound (%) [1] | Substance | Kd [2]
100% | Neuronal calcium sensor-1 (NCS-1), GST-free recombinant protein from the GST-NCS-1 plasmid (from UniProt P62166 1-190) (natural protein) | 
 | calmodulin C lobe C lobe (from UniProt P0DP23) | 4.32 nM
